B1: 6YSE (parent)
chain: HERALMVNRLQKLTRMLRVHPDPKWKQEQQELIKRLK

Variants of: B1
Experiment: folding stability dG (cDNA display proteolysis); higher = more stable
Settings: PBS, room temperature

Variant	folding stability dG
HERALMVNRLQKLTRMCRVHPDPKWKQEQQELIKRLK [L17C]	-0.743 kcal/mol
HERALMVNRLQKLTRMIRVHPDPKWKQEQQELIKRLK [L17I]	1.09 kcal/mol
HERALMVNRLQKLTRQLRVHPDPKWKQEQQELIKRLK [M16Q]	-0.015 kcal/mol
HERALMVNRLQKLTRILRVHPDPKWKQEQQELIKRLK [M16I]	0.699 kcal/mol
HERALMVNRLQKLTRFLRVHPDPKWKQEQQELIKRLK [M16F]	0.018 kcal/mol
HERALMVNRLQKLTRRLRVHPDPKWKQEQQELIKRLK [M16R]	0.261 kcal/mol
HERALMVNRLQKLTRYLRVHPDPKWKQEQQELIKRLK [M16Y]	0.489 kcal/mol
HERALMVNVLQKLTRMLRVHPDPKWKQEQQELIKRLK [R9V]	-0.415 kcal/mol
HERALMVNELQKLTRMLRVHPDPKWKQEQQELIKRLK [R9E]	0.136 kcal/mol
HERALMVNQLQKLTRMLRVHPDPKWKQEQQELIKRLK [R9Q]	0.621 kcal/mol
HERALMVNRLQKLTRMLRVHIDPKWKQEQQELIKRLK [P21I]	0.664 kcal/mol
HERALMVNRLQKLTRMLRVHPDPKWKQEQQELFKRLK [I33F]	0.663 kcal/mol
HERALMVNRLQKLTRMLRVHPDPKWKQEQQEIIKRLK [L32I]	0.927 kcal/mol
HERALMVNRLQKLTRMLRVHPDPDWKQEQQELIKRLK [K24D]	0.986 kcal/mol
HERALMVNRLQKLTRMLRVHPDPMWKQEQQELIKRLK [K24M]	1.09 kcal/mol
HERALMVERLQKLTRMLRVHPDPKWKQEQQELIKRLK [N8E]	1.56 kcal/mol
HERALMVRRLQKLTRMLRVHPDPKWKQEQQELIKRLK [N8R]	2.01 kcal/mol
HERALMVIRLQKLTRMLRVHPDPKWKQEQQELIKRLK [N8I]	1.84 kcal/mol
HARALMVNRLQKLTRMLRVHPDPKWKQEQQELIKRLK [E2A]	1.14 kcal/mol
HDRALMVNRLQKLTRMLRVHPDPKWKQEQQELIKRLK [E2D]	1.16 kcal/mol
HQRALMVNRLQKLTRMLRVHPDPKWKQEQQELIKRLK [E2Q]	1.25 kcal/mol
HERALMVNRLQKLTRMLRVHPDPKWKQEQQELIKRLF [K37F]	1.68 kcal/mol
HERALMVNRLQKLTRMLRVHPDPKWKQEQQELITRLK [K34T]	1.27 kcal/mol

Variant	folding stability dG
HERALMVNRLQKLTRMLRVHPDPKWKQEQQELIFRLK [K34F]	1.2 kcal/mol
HERALMVNRLQKLTRMLRVHPDPKWKQEQQELIIRLK [K34I]	1.31 kcal/mol
HERALMVNRLQKLTRMLRVHPDPKWKQEQQELISRLK [K34S]	1.07 kcal/mol
HERALMVNRLQKLTRMLRVHPDPKWKQEQQELIQRLK [K34Q]	1.25 kcal/mol
HERALMVNRLQKLTRMLRVHPDPKWKQEQQELIHRLK [K34H]	1.11 kcal/mol
HERALMVNRLQKLTRMLRVHPDPKWKQEQQELIKRMK [L36M]	0.478 kcal/mol
GERALMVNRLQKLTRMLRVHPDPKWKQEQQELIKRLK [H1G]	1.05 kcal/mol
HERALMVNRLQKVTRMLRVHPDPKWKQEQQELIKRLK [L13V]	0.655 kcal/mol
HERALMLNRLQKLTRMLRVHPDPKWKQEQQELIKRLK [V7L]	2.05 kcal/mol
HERALMTNRLQKLTRMLRVHPDPKWKQEQQELIKRLK [V7T]	0.591 kcal/mol
HERALMNNRLQKLTRMLRVHPDPKWKQEQQELIKRLK [V7N]	0.506 kcal/mol
HERALMFNRLQKLTRMLRVHPDPKWKQEQQELIKRLK [V7F]	1.42 kcal/mol
HERALMVNRLQKLTRMLRVHPDPKWKQEQQELIKGLK [R35G]	-0.14 kcal/mol
HERALMVNRLQKLTRMLRVHPDPKWKQEQQELIKHLK [R35H]	0.82 kcal/mol
HEDALMVNRLQKLTRMLRVHPDPKWKQEQQELIKRLK [R3D]	0.418 kcal/mol
HEQALMVNRLQKLTRMLRVHPDPKWKQEQQELIKRLK [R3Q]	0.786 kcal/mol
HERALMVNRLQKLTRMLRVHPDPKWKMEQQELIKRLK [Q27M]	1.38 kcal/mol
HERALMVNRLQKLTRMLKVHPDPKWKQEQQELIKRLK [R18K]	1.36 kcal/mol
HERALMVNRLQKLTRMLHVHPDPKWKQEQQELIKRLK [R18H]	0.59 kcal/mol
HERALMVNRLQKLTRMLRVHPDPKWKQQQQELIKRLK [E28Q]	0.317 kcal/mol
HERALMVNRLQKLTRMLRVHPDPKWKQWQQELIKRLK [E28W]	0.824 kcal/mol
HERALMVNRLQQLTRMLRVHPDPKWKQEQQELIKRLK [K12Q]	1.71 kcal/mol
HERALMVNRLQKLTRMLRVHPIPKWKQEQQELIKRLK [D22I]	0.677 kcal/mol

Variant	folding stability dG
HERALMVNRLQKLTRMLRVHPAPKWKQEQQELIKRLK [D22A]	0.299 kcal/mol
HERALMVNRLQKLTEMLRVHPDPKWKQEQQELIKRLK [R15E]	1.42 kcal/mol
HERALMVNRLQKLTFMLRVHPDPKWKQEQQELIKRLK [R15F]	0.829 kcal/mol
HERALMVNRLQKLTRMLRVHPDPKIKQEQQELIKRLK [W25I]	1.62 kcal/mol
HERALMVNRLQKLTRMLRVHPDPKWKQEQTELIKRLK [Q30T]	1.13 kcal/mol
HERALMVNRLAKLTRMLRVHPDPKWKQEQQELIKRLK [Q11A]	1.54 kcal/mol
HERALMVNRLNKLTRMLRVHPDPKWKQEQQELIKRLK [Q11N]	1.34 kcal/mol
HERALMVNRLDKLTRMLRVHPDPKWKQEQQELIKRLK [Q11D]	0.958 kcal/mol
HERALMVNRLVKLTRMLRVHPDPKWKQEQQELIKRLK [Q11V]	1.48 kcal/mol
HERALIVNRLQKLTRMLRVHPDPKWKQEQQELIKRLK [M6I]	1.8 kcal/mol
HERALVVNRLQKLTRMLRVHPDPKWKQEQQELIKRLK [M6V]	0.718 kcal/mol
HERALDVNRLQKLTRMLRVHPDPKWKQEQQELIKRLK [M6D]	0.383 kcal/mol
HERALMVNRLQKLTRMLRVHPDIKWKQEQQELIKRLK [P23I]	0.608 kcal/mol
HERALMVNRLQKLVRMLRVHPDPKWKQEQQELIKRLK [T14V]	0.832 kcal/mol
HERALMVNRLQKLKRMLRVHPDPKWKQEQQELIKRLK [T14K]	1.34 kcal/mol
HERALMVNRLQKLNRMLRVHPDPKWKQEQQELIKRLK [T14N]	1.39 kcal/mol
HERALMVNRLQKLTRMLRVHPDPKWKQEIQELIKRLK [Q29I]	1.69 kcal/mol
HERALMVNRLQKLTRMLRVHPDPKWKQELQELIKRLK [Q29L]	1.85 kcal/mol
HERAWMVNRLQKLTRMLRVHPDPKWKQEQQELIKRLK [L5W]	2.06 kcal/mol
HERTLMVNRLQKLTRMLRVHPDPKWKQEQQELIKRLK [A4T]	1.46 kcal/mol
HERSLMVNRLQKLTRMLRVHPDPKWKQEQQELIKRLK [A4S]	1.06 kcal/mol
